Kd data for five molecules are collected here from publication PMC2199621 (The Journal of Cell Biology, 2001).

First the molecules themselves.
B1: GST-tagged Nup54 (natural protein, UniProt P70582 1-510, looked up)
chain: MAFNFGAPSGTSGTSTATAAPAGGFGGFGTTTTTAGSAFSFSAPTNTGSTGLLGGTQNKGFGFGTGFGTSTGTGTGLGTGLGTGLGFGGFNTQQQQQQQQTSLGGLFSQPAQAPAQSNQLINTASALSAPTLLGDERDAILAKWNQLQAFWGTGKGYFNNNIPPVEFTQENPFCRFKAVGYSCMPNNKDEDGLVVLIFNKKETDIRSQQQQLVESLHKVLGGNQTLTVNVEGIKTLPDDQTEVVIYIVERSPNGTSRRVPATTLYAHFEQANIKTQLQQLGVTLSMTRTELSPAQIKQLLQNPPAGVDPIIWEQAKVDNPDSEKLIPVPMVGFKELLRRLKVQDQMTKQHQTRLDIISEDISELQKNQTTTMAKIAQYKRKLMDLSHRTLQVLIKQEIQRKSGYAIQAEEEQLRVQLDTIQGELNAPTQFKGRLNELMSQIRMQNHFGAVKSEEKYYIDADLLREIKQHLKQQQEGLSHLISIIKDDLEDIKLVEHGLNETIHSRGGVFS
B2: GST-tagged Nup58 (natural protein, UniProt P70581 1-585, looked up)
chain: MATGFSFGSGTLGSTTVAPGGTGTGSGFSFGASSTPSVGLNFGTLGSSATPASTSTSASGFGTGLFGSKPGTGFTLGGTSAGTTATTSASTTGFSLGFSKPAASATPFALPVTSTTASGLTLSSALTSAPAASTGFTLNNLGATPATTTAASTGLSLGGALAGLGGSLFQSGNTATSGLGQNALSLSLGTATPTSAASSEGLGGIDFSTSSDKKSDKTGTRPEDSKALKDENLPPVICQDVENLQKFVKEQKQVQEEISRMSSKAMLKVQEDIKALKQLLSLAASGLQRNTLNIDKLKLETAQELKNAEIALRTQKTPPGLQHENTAPADYFRVLVQQFEVQLQQYRQQIEELENHLATQANNSHITPQDLSMAMQKIYQTFVALAAQLQSIHENVKVLKEQYLSYRKMFLGDAGDVFEARRTEAKKWQNAPRVTTGPTPFSTMPNAAAVAMAATLTQQQQPATGPQPSLGVSFGTPFGSGIGTGLQSSGLGSSNLGGFGTSSGFGCGTTGASTFGFGTTDKPSGSLSAGFGSSSTSGFNFSNPGITASAGLTFGVSNPASAGFGTGGQLLQLKRPPAGNKRGKR
B3: Nup358-4 (amino acids 2500–3224) (domain or fragment, UniProt P49792 2500-3224, looked up)
chain: TSETTPKAVVSPPKFVFGSESVKSIFSSEKSKPFAFGNSSATGSLFGFSFNAPLKSNNSETSSVAQSGSESKVEPKKCELSKNSDIEQSSDSKVKNLFASFPTEESSINYTFKTPEKAKEKKKPEDSPSDDDVLIVYELTPTAEQKALATKLKLPPTFFCYKNRPDYVSEEEEDDEDFETAVKKLNGKLYLDGSEKCRPLEENTADNEKECIIVWEKKPTVEEKAKADTLKLPPTFFCGVCSDTDEDNGNGEDFQSELQKVQEAQKSQTEEITSTTDSVYTGGTEVMVPSFCKSEEPDSITKSISSPSVSSETMDKPVDLSTRKEIDTDSTSQGESKIVSFGFGSSTGLSFADLASSNSGDFAFGSKDKNFQWANTGAAVFGTQSVGTQSAGKVGEDEDGSDEEVVHNEDIHFEPIVSLPEVEVKSGEEDEEILFKERAKLYRWDRDVSQWKERGVGDIKILWHTMKNYYRILMRRDQVFKVCANHVITKTMELKPLNVSNNALVWTASDYADGEAKVEQLAVRFKTKEVADCFKKTFEECQQNLMKLQKGHVSLAAELSKETNPVVFFDVCADGEPLGRITMELFSNIVPRTAENFRALCTGEKGFGFKNSIFHRVIPDFVCQGGDITKHDGTGGQSIYGDKFEDENFDVKHTGPGLLSMANQGQNTNNSQFVITLKKAEHLDFKHVVFGFVKDGMDTVKKIESFGSPKGSVCRRITITECGQI
B4: GST-tagged Nup62 (natural protein, UniProt P17955 1-525, looked up)
chain: MSGFNFGGTGAPAGGFTFGTAKTATTTPATGFSFSASGTGTGGFNFGTPSQPAATTPSTSLFSLATQTSTTQTPGFNFGTTPASGGTGFSLGISTPKLSLSSTAATPATANTGSFGLGSSTLTNAISGASTSSQGTAPTGFVFGSSTTSAPSTGTTGFSFTSGSASQPGASGFNIGSVGSLAQPTALSGSPFTPATLATTTAGATQPAAATPTAATTSAGSTLFASIAAAPASSSTTVLSLSAPATTAATPTAGTLGFSLKAPGAAPGASTTSTTTTTTTTTTTASTSSSTTTTGFALSLKPLVPAGPSSVAATALPASSTAVGTTTGPAMTYAQLESLINKWSLELEDQERHFLQQATQVNAWDRTLIENGEKITSLHREVEKVKLDQKRLDQELDFILSQQKELEDLLSPLEESVKEQSGTIYLQHADEEREKTYKLAENIDAQLKRMAQDLKDIIEHLNMAGGPADTSDPLQQICKILNAHMDSLQWVDQSSALLQRRVEEASRVCESRRKEQERSLRIAFD
B5: 6× his–tagged COOH-terminal segment of human Nup153 comprising amino acids 609–1475 (domain or fragment, UniProt P49790 609-1475, looked up)
chain: LDILKSPGFASPKIDSVAAQPTATSPVVYTRPAISSFSSSGIGFGESLKAGSSWQCDTCLLQNKVTDNKCIACQAAKLSPRDTAKQTGIETPNKSGKTTLSASGTGFGDKFKPVIGTWDCDTCLVQNKPEAIKCVACETPKPGTCVKRALTLTVVSESAETMTASSSSCTVTTGTLGFGDKFKRPIGSWECSVCCVSNNAEDNKCVSCMSEKPGSSVPASSSSTVPVSLPSGGSLGLEKFKKPEGSWDCELCLVQNKADSTKCLACESAKPGTKSGFKGFDTSSSSSNSAASSSFKFGVSSSSSGPSQTLTSTGNFKFGDQGGFKIGVSSDSGSINPMSEGFKFSKPIGDFKFGVSSESKPEEVKKDSKNDNFKFGLSSGLSNPVSLTPFQFGVSNLGQEEKKEELPKSSSAGFSFGTGVINSTPAPANTIVTSENKSSFNLGTIETKSASVAPFTCKTSEAKKEEMPATKGGFSFGNVEPASLPSASVFVLGRTEEKQQEPVTSTSLVFGKKADNEEPKCQPVFSFGNSEQTKDENSSKSTFSFSMTKPSEKESEQPAKATFAFGAQTSTTADQGAAKPVFSFLNNSSSSSSTPATSAGGGIFGSSTSSSNPPVATFVFGQSSNPVSSSAFGNTAESSTSQSLLFSQDSKLATTSSTGTAVTPFVFGPGASSNNTTTSGFGFGATTTSSSAGSSFVFGTGPSAPSASPAFGANQTPTFGQSQGASQPNPPGFGSISSSTALFPTGSQPAPPTFGTVSSSSQPPVFGQQPSQSAFGSGTTPNSSSAFQFGSSTTNFNFTNNSPSGVFTFGANSSTPAASAQPSGSGGFPFNQSPAAFTVGSNGKNVFSSSGTSFSGRKIKTAVRRRK

The first assay deals with 6× his-S–tagged importin β (UniProt Q14974 1-876). Nature of the assay: ELISA. On the technique in general: An ELISA detects its analyte on a solid surface through an enzyme-linked reagent.
Sequence of 6× his-S–tagged importin β (Q14974 whole entry): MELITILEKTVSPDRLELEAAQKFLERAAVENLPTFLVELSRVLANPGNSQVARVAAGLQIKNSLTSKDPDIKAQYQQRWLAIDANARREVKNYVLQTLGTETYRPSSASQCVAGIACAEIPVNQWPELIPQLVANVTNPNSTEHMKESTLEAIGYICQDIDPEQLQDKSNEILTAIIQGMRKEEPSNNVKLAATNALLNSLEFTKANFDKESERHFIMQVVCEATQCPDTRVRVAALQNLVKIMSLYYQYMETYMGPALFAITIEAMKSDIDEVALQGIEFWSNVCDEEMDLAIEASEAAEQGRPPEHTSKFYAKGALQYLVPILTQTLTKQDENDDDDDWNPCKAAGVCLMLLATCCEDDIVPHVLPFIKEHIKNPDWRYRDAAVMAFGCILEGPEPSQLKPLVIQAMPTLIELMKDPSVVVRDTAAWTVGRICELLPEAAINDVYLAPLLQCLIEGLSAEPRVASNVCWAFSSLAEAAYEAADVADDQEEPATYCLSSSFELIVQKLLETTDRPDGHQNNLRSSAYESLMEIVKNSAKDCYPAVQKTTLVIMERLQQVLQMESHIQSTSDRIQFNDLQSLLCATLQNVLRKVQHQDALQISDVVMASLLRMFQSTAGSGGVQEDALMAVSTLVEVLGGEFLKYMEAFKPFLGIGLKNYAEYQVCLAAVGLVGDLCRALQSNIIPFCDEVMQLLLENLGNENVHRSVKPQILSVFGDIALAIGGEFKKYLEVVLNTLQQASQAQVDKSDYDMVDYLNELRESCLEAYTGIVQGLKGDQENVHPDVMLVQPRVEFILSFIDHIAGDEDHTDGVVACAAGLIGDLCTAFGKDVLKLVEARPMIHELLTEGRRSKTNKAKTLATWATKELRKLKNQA
The Kd is the equilibrium constant for the complex coming apart. Higher therefore signals a looser complex. Regarding B1, the Kd amounted to 112 ± 6.5 nM.

Molecule B2 gave a Kd of 101 ± 2 nM.

B3 came in with a Kd of 225 ± 14.4 nM.

Molecule B4 yielded a Kd of 100 ± 8 nM.

On to B5, for which the Kd stood at 9 ± 2.5 nM. Against the preceding molecule, the Kd is about 11-fold lower.

In the next assay the target is importin β–IBB domain complex (UniProt Q14974 1-876; P52292 2-60). Nature of the assay: ELISA.
Sequence of importin β–IBB domain complex (Q14974 whole entry, chain 1 of 2, other chains not shown, the tested form may be a part): as the sequence (Q14974 whole entry) above
B1 returned a Kd of 108 ± 8.5 nM.

As for B2, the Kd was 107 ± 8 nM.

Regarding B3, the Kd was 220 ± 16 nM.

Take B4: the Kd was determined as 105 ± 6 nM.

In the case of B5, the Kd worked out at 9.4 ± 3 nM. This Kd is about 11-fold lower than that of the molecule before.
